Assay results: the supplement of paper PMC7877785
± gives the uncertainty stated by the source.

Assay: self-splicing fitness, log relative to wild type (ln ratio); higher = more splicing; Tetrahymena group I intron in knt gene, E. coli kanamycin selection, DiMSum; sequences stand for … in CUCUCU…GGAGGGAAAAGUUAUCAGGCAUGCACCUGGUAGCUAGUCUUUAAACCAAUAGAUUGCAUCGGUUUAAAAGGCAAGACCGUCAAAUUGCGGGAAAGGGGUCAACAGCCGUUCAGUACCAAGUCUCAGGGGAAACUUUGAGAUGGCCUUGCAAAGGGUAUGGUAAUAAGCUGACGGACAUGGUCCUAACCACGCAGCCAAGUCCUAAGUCAACAGAUCUUCUGUUGAUAUGGAUGCAGUUCACAGACUAAAUGUCGGUCGGGGAAGAUGUAUUCUUCUCAUAAGAUAUAGUCGGACCUCUCCUUAAUGGGAGCUAGCGGAUGAAGUGAUGCAACACUGGAGCCGCUGGGAACUAAUUUGUAUGCGAAAGUAUAUUGAUUAGUUUUGGAGUACUCGUGGUCG
Procedure, shortened: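 A randomised library covering all eight P1ex-region intron nucleotides was built with the intron in the knt kanamycin-resistance gene on pET-22b(+) and held in E. coli BL21(DE3). Cells were grown overnight at 37°C or 30°C on LB agar, with or without 25 μg/mL kanamycin, plus 100 μg/mL carbenicillin, 50 μM IPTG and 0.2% rhamnose, and pooled colonies were amplicon-sequenced on an Illumina HiSeq 2500. DiMSum fitness is the error-weighted combination of wild-type-normalised replicate fold changes, kanamycin versus none.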

| Sequence | self-splicing fitness (ln) (30 °C) | self-splicing fitness (ln) (37 °C) |
| --- | --- | --- |
| UCGAAGCAAUAUUACGGUCC | -4.15 ± 0.42 | -1.95 ± 0.31 |
| UCGAAGCAAUAUUACGUAGU | -2.53 ± 0.11 | -0.666 ± 0.11 |
| UCGAAGCAAUAUUACGUCCG | -0.163 ± 0.1 | -0.412 ± 0.12 |
| UCGAAGCAAUAUUACGUCGC | -1.76 ± 0.14 | -1.86 ± 0.19 |
| UCGAAGCAAUAUUACGUUCC | -2.35 ± 0.33 | -0.433 ± 0.41 |
| UCGAAGCAAUAUUACGUUGC | -3.36 ± 0.26 |  |
| UCGCAGCAAUAUUACGAAGG | -1.85 ± 0.096 | -0.846 ± 0.12 |
| UCGCAGCAAUAUUACGAAUC | -4.04 ± 0.2 | -2.61 ± 0.2 |
| UCGCAGCAAUAUUACGACAG | -2.6 ± 0.25 | -0.246 ± 0.35 |
| UCGCAGCAAUAUUACGCAGC |  | -2.1 ± 0.45 |
| UCGCAGCAAUAUUACGCAGG | -3.59 ± 0.2 | -2.2 ± 0.19 |
| UCGCAGCAAUAUUACGCAUU | -2.57 ± 0.18 | -2.43 ± 0.21 |
| UCGCAGCAAUAUUACGCCAA | -1.37 ± 0.16 | -1.23 ± 0.22 |
| UCGCAGCAAUAUUACGGCUC | -3.21 ± 0.17 | -2.96 ± 0.35 |
| UCGCAGCAAUAUUACGGGAG | -3.59 ± 0.24 | -3.15 ± 0.23 |
| UCGCAGCAAUAUUACGGGGU | -3.73 ± 0.17 | -2.72 ± 0.18 |
| UCGCAGCAAUAUUACGGUAG | -2.49 ± 0.086 | -0.887 ± 0.086 |
| UCGCAGCAAUAUUACGGUAU | -3.36 ± 0.17 | -1.78 ± 0.21 |
| UCGCAGCAAUAUUACGUAGG | -0.74 ± 0.068 | -0.377 ± 0.086 |
| UCGCAGCAAUAUUACGUAGU | -2.58 ± 0.13 | -2.85 ± 0.26 |
| UCGCAGCAAUAUUACGUAUU | -3.64 ± 0.15 | -1.85 ± 0.12 |
| UCGCAGCAAUAUUACGUCAG | -1.59 ± 0.12 | 0.604 ± 0.15 |
| UCGCAGCAAUAUUACGUGCU | -3.64 ± 0.16 | -2.15 ± 0.17 |
| UCGCAGCAAUAUUACGUUAC | -3.36 ± 0.36 | -2.95 ± 0.25 |
| UCGCAGCAAUAUUACGUUCC | -2.7 ± 0.23 |  |

| Sequence | self-splicing fitness (ln) (30 °C) | self-splicing fitness (ln) (37 °C) |
| --- | --- | --- |
| UCGCAGCAAUAUUACGUUUC | -3.87 ± 0.2 | -1.66 ± 0.12 |
| UCGGAGCAAUAUUACGAACG |  | -1.54 ± 0.35 |
| UCGGAGCAAUAUUACGAAUA | -2.32 ± 0.32 | -1.27 ± 0.32 |
| UCGGAGCAAUAUUACGACGC | -1.25 ± 0.25 | -0.73 ± 0.22 |
| UCGGAGCAAUAUUACGAUGU | -2.81 ± 0.17 | -1.2 ± 0.13 |
| UCGGAGCAAUAUUACGCAUU |  | -2.14 ± 0.27 |
| UCGGAGCAAUAUUACGCCUU | -2.96 ± 0.29 | -2.92 ± 0.43 |
| UCGGAGCAAUAUUACGGACG | -1.65 ± 0.21 | 0.113 ± 0.17 |
| UCGGAGCAAUAUUACGGAUU | -2.73 ± 0.27 | -2.85 ± 0.38 |
| UCGGAGCAAUAUUACGGCCG | -1.49 ± 0.31 |  |
| UCGGAGCAAUAUUACGGCGG | -1.42 ± 0.11 | -0.955 ± 0.17 |
| UCGGAGCAAUAUUACGGGAU | -3.48 ± 0.25 | -2.81 ± 0.38 |
| UCGGAGCAAUAUUACGGUUC |  | -2.89 ± 0.43 |
| UCGGAGCAAUAUUACGUCGA | -0.356 ± 0.42 | -0.949 ± 0.3 |
| UCGGAGCAAUAUUACGUGUU | -3.26 ± 0.24 | -2.25 ± 0.26 |
| UCGGAGCAAUAUUACGUUCG | -1.19 ± 0.17 | -1.27 ± 0.27 |
| UCGUAGCAAUAUUACGAAGC |  | -1.29 ± 0.35 |
| UCGUAGCAAUAUUACGACGG | -2.04 ± 0.2 | -0.573 ± 0.19 |
| UCGUAGCAAUAUUACGAGGA | -3.72 ± 0.39 | -2.58 ± 0.29 |
| UCGUAGCAAUAUUACGAUAA | -3.65 ± 0.26 | -1.72 ± 0.2 |
| UCGUAGCAAUAUUACGAUAG |  | -3.12 ± 0.38 |
| UCGUAGCAAUAUUACGAUCG | -2.77 ± 0.23 | -0.597 ± 0.18 |
| UCGUAGCAAUAUUACGAUUA | -2 ± 0.3 | -0.78 ± 0.17 |
| UCGUAGCAAUAUUACGCCCA | -0.576 ± 0.14 | 0.129 ± 0.19 |
| UCGUAGCAAUAUUACGCGCG | -1.62 ± 0.12 | -1.34 ± 0.15 |

| Sequence | self-splicing fitness (ln) (30 °C) | self-splicing fitness (ln) (37 °C) |
| --- | --- | --- |
| UCGUAGCAAUAUUACGCGUU | -2.91 ± 0.26 | -2.18 ± 0.26 |
| UCGUAGCAAUAUUACGCUGC |  | -2.48 ± 0.36 |
| UCGUAGCAAUAUUACGGAUU | -2.08 ± 0.14 | -2.85 ± 0.23 |
| UCGUAGCAAUAUUACGGCAU | -3.93 ± 0.27 | -2.53 ± 0.28 |
| UCGUAGCAAUAUUACGGGUA | -1.57 ± 0.17 | -0.425 ± 0.16 |
| UCGUAGCAAUAUUACGGUCA | -0.782 ± 0.16 | -0.0592 ± 0.13 |
| UCGUAGCAAUAUUACGGUUG | -2.14 ± 0.12 | -1.05 ± 0.15 |
| UCGUAGCAAUAUUACGGUUU | -3.44 ± 0.14 | -1.37 ± 0.11 |
| UCGUAGCAAUAUUACGUAGG | -2.71 ± 0.17 | -0.631 ± 0.15 |
| UCGUAGCAAUAUUACGUGGC | -4.04 ± 0.16 | -2.22 ± 0.12 |
| UCGUAGCAAUAUUACGUGUC | -3.24 ± 0.25 | -2.38 ± 0.25 |
| UCUAAGCAAUAUUACGAAGC | -1.05 ± 0.39 | -1.8 ± 0.36 |
| UCUAAGCAAUAUUACGACUA | -3.07 ± 0.25 | -0.59 ± 0.15 |
| UCUAAGCAAUAUUACGCAUA | -1.86 ± 0.18 | -2.33 ± 0.25 |
| UCUAAGCAAUAUUACGCCCA | -1.48 ± 0.15 | -0.486 ± 0.17 |
| UCUAAGCAAUAUUACGCUCG | -1.43 ± 0.2 | -1.36 ± 0.18 |
| UCUAAGCAAUAUUACGGCCA | -1.21 ± 0.22 | -1.17 ± 0.21 |
| UCUAAGCAAUAUUACGGCGA | -0.734 ± 0.086 | -0.474 ± 0.092 |
| UCUAAGCAAUAUUACGGCGU | -2.01 ± 0.11 | -0.795 ± 0.11 |
| UCUAAGCAAUAUUACGGGGG | -3.17 ± 0.22 | -0.678 ± 0.17 |
| UCUAAGCAAUAUUACGUCAU | -3.45 ± 0.2 | -2.4 ± 0.16 |
| UCUAAGCAAUAUUACGUCCA | -2 ± 0.14 | -0.707 ± 0.13 |
| UCUAAGCAAUAUUACGUCCC |  | -0.386 ± 0.41 |
| UCUAAGCAAUAUUACGUCGA | -0.33 ± 0.088 | 0.0723 ± 0.11 |
| UCUAAGCAAUAUUACGUCUA | -2.51 ± 0.33 | -2.25 ± 0.4 |

| Sequence | self-splicing fitness (ln) (30 °C) | self-splicing fitness (ln) (37 °C) |
| --- | --- | --- |
| UCUAAGCAAUAUUACGUCUG | -1.72 ± 0.16 | -1.18 ± 0.19 |
| UCUCAGCAAUAUUACGAAUU | -3.12 ± 0.13 | -1.77 ± 0.15 |
| UCUCAGCAAUAUUACGAGGA | -3.23 ± 0.26 | -1.77 ± 0.14 |
| UCUCAGCAAUAUUACGAGGG | -2.87 ± 0.11 | -1.31 ± 0.12 |
| UCUCAGCAAUAUUACGAGUC | -3.98 ± 0.18 | -2.93 ± 0.18 |
| UCUCAGCAAUAUUACGAUCU | -1.68 ± 0.14 | -2 ± 0.2 |
| UCUCAGCAAUAUUACGCAUG |  | -1.04 ± 0.45 |
| UCUCAGCAAUAUUACGCCGC | -2.99 ± 0.34 | -1.52 ± 0.36 |
| UCUCAGCAAUAUUACGCGUC | -3.62 ± 0.27 | -2.81 ± 0.29 |
| UCUCAGCAAUAUUACGGAUU | -1.73 ± 0.097 | -1.15 ± 0.11 |
| UCUCAGCAAUAUUACGGUGA | -1.8 ± 0.13 | -1.14 ± 0.12 |
| UCUCAGCAAUAUUACGGUUC | -2.57 ± 0.21 | -1.73 ± 0.34 |
| UCUCAGCAAUAUUACGUAUC | -3.5 ± 0.24 | -1.9 ± 0.25 |
| UCUCAGCAAUAUUACGUCUC | -4.6 ± 0.31 | -3 ± 0.23 |
| UCUCAGCAAUAUUACGUGGU | -1.7 ± 0.1 | -2.48 ± 0.16 |
| UCUCAGCAAUAUUACGUGUG | -2.33 ± 0.098 | -2.27 ± 0.11 |
| UCUCAGCAAUAUUACGUUCC | -2.72 ± 0.36 | -0.417 ± 0.28 |
| UCUGAGCAAUAUUACGAAGG | -3.05 ± 0.21 | -0.953 ± 0.15 |
| UCUGAGCAAUAUUACGAGAC | -2.52 ± 0.17 |  |
| UCUGAGCAAUAUUACGAGCU | -2.99 ± 0.24 | -2.23 ± 0.47 |
| UCUGAGCAAUAUUACGAGGA | -3.8 ± 0.4 | -3.29 ± 0.42 |
| UCUGAGCAAUAUUACGAGUG | -3.98 ± 0.4 | -1.24 ± 0.22 |
| UCUGAGCAAUAUUACGAUAG | -3.28 ± 0.18 | -1.93 ± 0.18 |
| UCUGAGCAAUAUUACGAUCG |  | -0.514 ± 0.41 |
